This is an account of results in publication PMC5864845, “Engineering enhanced cellobiohydrolase activity” (Nature Communications, 2018).

As usually defined, the Km is the substrate concentration at which the rate is half of its maximum. The kcat is the number of substrate molecules converted per active site and unit of time at saturation.

Substrate in the series: [H][C@@]1(O[C@H]2[C@H](O)[C@@H](O)[C@H](Oc3ccc([N+](=O)[O-])cc3)O[C@@H]2CO)O[C@H](CO)[C@H](O)[C@H](O)[C@H]1O
Nature of the series: p-nitrophenol release, A405, Michaelis-Menten fit. Type of series: biochemical, Trichoderma reesei. To be noted: 20 mM acetate pH 5.0, 100 mM NaCl, 40 °C. The method, then:
p-nitrophenol release, A405, Michaelis-Menten fit on […] | Vmax and Km were determined using p-nitrophenyl-β-D-lactopyranoside (pNPL, Sigma) as substrate

B1: TrCel7A (Trichoderma reesei) (protein)
chain: QSACTLQSETHPPLTWQKCSSGGTCTQQTGSVVIDANWRWTHATNSSTNCYDGNTWSSTLCPDNETCAKNCCLDGAAYASTYGVTTSGNSLSIGFVTQSAQKNVGARLYLMASDTTYQEFTLLGNEFSFDVDVSQLPCGLNGALYFVSMDADGGVSKYPTNTAGAKYGTGYCDSQCPRDLKFINGQANVEGWEPSSNNANTGIGGHGSCCSEMDIWEANSISEALTPHPCTTVGQEICEGDGCGGTYSDNRYGGTCDPDGCDWNPYRLGNTSFYGPGSSFTLDTTKKLTVVTQFETSGAINRYYVQNGVTFQQPNAELGSYSGNELNDDYCTAEEAEFGGSSFSDKGGLTQFKKATSGGMVLVMSLWDDYYANMLWLDSTYPTNETSSTPGAVRGSCSTSSGVPAQVESQSPNAKVTFSNIKFGPIGSTGNPSGGNPPGGNRGTTTTRRPATTTGSSPGPTQSHYGQCGGIGYSGPTVCASGTTCQVLNPYYSQCL
notes: full length wild type (catalytic domain, linker, CBM1), secreted and purified from Trichoderma reesei AST1116 (QM6A, cbh1 deletion) host, pTrEno
Take B1: the Km is 2195 ± 880 µM and the kcat is 0.2377 ± 0.0175 s⁻¹.
